The nanobody polyreactivity screen of Harvey et al. (2022)

Experiment: yeast display, Sf9 membrane polyspecificity reagent, FACS + sequencing; frameworks hold sequencing errors
Summary of the method: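 Genes from sorted yeast were amplified by colony PCR, read by MiSeq 2 × 250 sequencing and filtered on CDR length. These cells carried a synthetic nanobody library in Saccharomyces cerevisiae BJ5465 and were sorted by FACS into low and high (top ~1%) gates on anti-HA and streptavidin fluorescence. Polyreactivity is labelled according to the gate of origin.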

Row | Sequence | polyreactivity (PSR sort gate)
1 | QVQLVESGGGLVQAGGSLRLSCAATGRIFTYMGWYRQAPGKERELVAGISWRGTSTYYADSVKGRFTISRDNAKNTVYLQMNSLKPEDTAVYYCAARWAYHVRGDYWGQGTQVTVSS | low polyreactivity
2 | QVQLVESGGGLVQAGGSLRLSCAASGGTFYGYAMGWYRQAPGKERELVAAITSGDSTNYADSVKGRFTISRDNAKNTVYLQMNNLKPEDTAVYYCAAGDPTLLNESFDYWGQGTQVTVSS | low polyreactivity
3 | QVQLVESGGGLGQAGGSLRLSCAASGRTFYYNAMGWYRQAPGKERELVAAITRSGGRTYYADSVKGRFTISRDTAKNTVYLQMNSLKPEDTAVYYCAARWSSYYSSMDYWGQGSQVTVSS | high polyreactivity
4 | QVQLVESGGGLVQEGGSLRLTCAASGSTFIGNAMGGYRQAPGKERELVAAITSSGGSTYYADSVKGRFTISRDNAKNTVYLQMNSLKPEDTALYYCAAKTWARGHYGYQARSNYWGQGTQVTVSS | high polyreactivity
5 | QVQLVESGGGLVQAGGSLRLSCAASGPTFWRNAMGWYRQAPGKEREFVASISRSGGSTYYADSVKGRFTISRDNAKNTVYLQMNSLKPEDTAVYYCAALGVRGYRGPGGQDYNSWGQGTQVTVSS | high polyreactivity
6 | QVQLVESGGGLVQAGGSLRLSCAASGFTFGQYVMGWYRQAPGKERELVAAISFSGGSTYYADSVKGRFTISRDNAKNTVSVQMTSLKPEDTAVYYCAADVNVLYLLRFSHRSNYGYWGQGTQVTVSS | high polyreactivity
7 | QVQLVESGGGLVQAGGSLRLSCAASGSIFYKYAMGWYRQAPGKERELVASITSGGITNYADSVKGRFTISRDNAKNTVFLQMNSLKPEDTAVYYCNAANPYRRVGSFTYKYDYWGQGTQVTVSS | low polyreactivity
8 | QVQLVESGGGLVQAGGSLRLSCAASGLTLRTNSMRLYIQAPGKERELVAAISRSGVRTYYAHSVKGRFTISRDNAKNTVYLQMNSLKPEDTAVYYCNAEFSPYPYDYWGQGTQVTVSS | high polyreactivity
9 | QVQLVESGGGLVQAGGSLRLSCAASGSTFYLYAMGWYRQAPGKERELVAGITGSGGRTYYADSVKGRFTISRDNAKNTVYLQLNSLKPEDTAVYYCNKRRASWSPAGGTYNYWGQGSQVTVSS | low polyreactivity
10 | QVQLVESGGGLVQAGGSLRLICAASGFIFDSYAMGWYRQAPGKARELVAAISVNGGTTYYADSVKGRFTISRDNAKNTVYLQMISLKPEDTAVYFCNADLYYDVGQPMDYWGQGTQVTVSS | low polyreactivity
11 | QVQLVESGGGLVQAGGSLRLSCAASGFTFYVYAMGWYRQAPGKERELVAAISKSGGSTYYADSVKGRFTISRDNAKNTVYLQMNSLKPEDTAVYYCAVYDKRSGYRGGHRYNSWGQGTQVTVSS | high polyreactivity
12 | QVQLVESGGGLVQAGGSLRLSCAASGRIFGVNAMGWYRQAPGKERELVAAISWSGGSTYYADSVKGRFTISRDNAKNTVYLQMNSLKPEDTAVYYCAADIWFYTYYLGQGTQVTVSS | high polyreactivity
13 | QFQLVESGGGLVQAGGSLRLSCAASGRIFDVNAMGWSRQAPGKESELVAAISTRGGGTYYADSVKGRFTISRDNAKNTVYLQMTSLKPEDTAVYYCNVVRRYGGRGIDYWGQGTQVTVSS | low polyreactivity
14 | QVQLVESGGGLVQAGGSLRLSCAASGSIFKANAMGWYRQAPGKERELVATITSSGTRTYYADSVKGRFTISRDNAKNTVYLQMNSLKPEDTAVYYCNARAYPYQRGRYGYWGQGTQVTVSS | high polyreactivity
15 | QVQLVESWAGLVQAGGSLRLSCAASGSTFSGYTMGWYRQAPGKEREFVAAISSRGGSTYYADSVKGRFTISRDNAKNTVYLHMNSLKPEDTAVYYCAAKVWARVDGRQFRMEYWGQGTQVSVSS | high polyreactivity
16 | QVQLVESGGGLVQAGGSLRLSCAASGIIFGRYAMGWYRQAPGKERELVAAINASGGSTYYADSVKGRFTISRDNAKNTVYLQMNSLKPEDTAVYYCATRSTRSRTSGYYYWGQGTQVTVSS | high polyreactivity
17 | QVQLVESGGGLVQAGGSLRLSCAASGRTFPYYAMGWYRQAPGKERELVAAISSSGGRTYYADSVKGRFTISRDNAKNTVYLQMNSLKREDTAVYYCNVDAWYPYQGFLVGYYYWGQGTQVTVSS | low polyreactivity
18 | QVQLVDSGGGLVQAVGSLRLSCAASGITFDEYAMGWYRQAPGKERELVAAISVSGGDTYYADSVKGRFTISRDNAKNNVYLQMNSLKPEDTAVYYCNARWGTPYYIQDFDYWGLGTQVTVSS | low polyreactivity
19 | KVQLVESGGGLFQAGGSLGLSCAPSGNTFYHYAMGWYRQSPGKERELVAGIRYNGGSTYYADSVKGRFTISRDNAKNTVYLHMKSLKPEDTAVYYCATIGYTGYAYRYGYWGQGTQVTVSS | high polyreactivity
20 | QVQLVESGGGLVQAGGSLRLSSAASGSIFYGNSMGWYRQAPGKERELVAAISQSGGSTYYADSVKGRFTISRDNAKNTVYLQMNSLKPEDTAVYYCAAYTPYATWRYDYWGQGTQVTVSS | low polyreactivity
21 | QVQLVESGGGLVQAGGSLRLSCAASGSTFGLNAMGWYRQAPGKERELVAAITRSDITNYADSVKGRFTISRDNAKNTVYLQMNSLKPEDTAVDYCAARGLWPYDYWGQGTQVTVSS | low polyreactivity

Row | Sequence | polyreactivity (PSR sort gate)
22 | QVQLVESGGGLVQAGGSLRLSCAPSGRTFNPYALGWYRPAPGKEREFVYADSVKGRFTISRDNAKNTVYLQMNSLKPEDTAVYYCAADVYPDTLHPYNYDYWGQGTQVTLSS | low polyreactivity
23 | QVQLVESGGGLVQAGGSLRLSCAASGSIFASNAMGWYRQAPGTERELVAAIDTSGGSTYYADSVKGRFTISRDNAKNTVYLQMNSLKPEDTAVYYCNTDWRDEYYPRYRASKFDYWGQGTQVTVSS | low polyreactivity
24 | QVQLVESGGGLVQAGGSLRLSCAASGFILNQYAMGWYRQAPGKERELVAAISNGGSTNYADSVKGRFTISRDNAKNTVYLQMNSLKPEDTAVYYCAKDQSLTYSSVWGYDYWGQGTQVTVSS | low polyreactivity
25 | QVQLVESGGGLVQAGGSLRLSCAASGFTFVSNAMGWYRQAPGKERELVADITSDGSTNYADSVKGRFTISRDNAKNTVYLQMNSLKPEDTAVYYCATDQRSHTWVNQFDYWGQGTQVTVSS | low polyreactivity
26 | QVQLVESGGGLVQAGGSLRLSCAASGRIFIYYAMGWYRQAPGKERELVAAISWGGGRTYYADSVKGRFTLSRYNAKNTVYLQMNSLKPEDTAVYYCAAGVYTGQNEYDYWGQGTQVTVSS | low polyreactivity
27 | QVQLVESGGGLVQAGGSLRLSCAASGGTFVYNAMGWYRQAPGKERELVAAIRVRGDTTYYADSVKGRFTISRDNAKYTVYLQMNSLKPEDTAVYYCAAYPDYSYYYWGQGTQVTVSS | high polyreactivity
28 | EVQLVESRGGLVQAGGSLRLSCAASGRIFRVYTMGWYRQAPGKERELVAAISRGGTTTYADSVKGRFTISCDNAKNTVYLQMNSLKPEDTAVYYCNARGWFRGEFDYWGQGTQVTVSS | high polyreactivity
29 | QVQLVESGGGLVQAGGSLRLSCAASGFTFTAYAMGWYRQAPGKERELVAAISYRGGRTNYAYSVKGRFTISRDNAKNTVYLQMNSLKPEDTAVYYCAARPRISTREMDYWGQGTQVTVSS | high polyreactivity
30 | QVQLVESGGGLVQEGGSLRLSCAASGSTFRYYAMGWYRQAPGKERELVASISSSGGNTYGDAVKGRFTISRDNAKNTVYLQMNSLKPEDTAVYYCNADWALLYSPPYTYRYGYWGQGTQVTVSS | low polyreactivity
31 | QVQLVESGGGLVQAGGSLRLSCAASGRTFEVYAMGLYRQAPGKERELVATITYSGGITYYADSVKGRFTISRDNAKNTVYLQMNSLKPEDTAVYYPIGVRGDYDYWGQGTQVTVSS | low polyreactivity
32 | QVQLVESGGGLVQAGGSLRLSCSASGRTFATNAMGWYRQAPGKERELVAAISGSGGRTYYADSVKGRFTISRDIAKNTVYLQMNSLKPEDTAVYYCAAQKVPYRATNYYYWGQGTQVTVSS | high polyreactivity
33 | QVQLEESGGGLVQAGGSLRLSCAASGFIFGYYAMGSYRQAPGKERELVAAISKSGGRTRYADSVKGRFTISRDNAKNTVYLQMNSLKPVDTAVYYCATYDPARSTQGYDYWGQGTQVTVSS | high polyreactivity
34 | QVQLVESGGGLVQAGGSLRLSCAASGSILPRYGMGWYSQAPGKEREFVAAISWRGGRTYYADSVKGRFTISRDTAKHTVYVQMNSLKPEDTAVYYCAARAHIYTRLDYWGQGTEVTVSS | high polyreactivity
35 | QVQLVESGGGLVQAGGSLRLSCSDSGFIYRMYAMGWYRQAHGKETELVSAISSDASTNYADSVKGRFTISRDNAKNTVYLQMNSLKPEDTAVYYCAAAVKRGYAQSFISDGYGYWGQGTQVTVSS | low polyreactivity
36 | QVQLVESGGGLVQAGGSLRLSCAASGYTLGDYSMGWYRQAPGKERELVAVITRNGGRTYYSDSVKGRFTISRDKAKNTVYLQMNSLKPEDTAVYYCNRDTSIRHYNYWGQGTQVTVSS | high polyreactivity
37 | QVQLVESGGGLVQAGGSLRLSCAASGITFRHYAMGWYRQAPGKERELVAAITSRGGSTYYADSVKGRFTISRDNAKNTVYLQMNSLKPEDTAVYYCAARRRLRAPDDYWGQGTQVTVSS | high polyreactivity
38 | QVQLVESGGGLVQAGGSLRLSCAASGLTFGDYTMGWYRQAPGKERELVAAITWSGASTYYADSVKGRFTISRDNAKNTVYLQMHSLKPEDTAVYYCAAERTPSYRAYDYWGQGTKVTVSS | low polyreactivity
39 | QVQHVESVGGLVQAGGSLRLSCAASGITFNYNAMGWYRQAPGKERELVAAIRGSDSTTYYADSVKGRFTISRDNAKNTVYLQMNSLKPEDTAVYYCAAVGVVPRKKSARVYYWGQGTQVTVSS | low polyreactivity
40 | QVQLLESGGGLVQAGGSLRLSCAASGSIINRYAMGLYRQAPGKERELVAAISWRGGSTYYADSVKGRFTISRDNAKNTVYLQMNSLKPEDTAVYYCNKVSYVKSGYWGQGTQVTVSS | high polyreactivity
41 | QVQLVESGGGLVQAGGSLRLSCAASGYNFGWYAMGWYRQAPGKERELVAGISSAGSTNYADSVKGRFTISRDNAKNTVYLQMNSLKPEDTSVDYCARDKWGLRYAPTVDYWGQGTQVTVSS | high polyreactivity
